Patent US20260199429A1

Tests used:
[1] = target: Sea Lamprey PYY(1-36) (sea lamprey)
[2] = target: Sturgeon PYY(1-36) (sturgeon)

purified DPP-4 (enzyme)
DPP-4 half-life (Bowfin PYY (bowfin)): > 8 h | DPP-4 half-life (Human PYY(1-36) (human)): < 2 h | DPP-4 half-life [1]: > 8 h | DPP-4 half-life [2]: > 8 h | DPP-4 half-life (Trout PYY (trout)): > 8 h
